Test results: patent US20030109481, “Tumour-cell specific gene expression and its use in cancer therapy” (published 2003)

B1: region 2 mutant 4 (dsDNA)
DNA 1: AATCCCGCCCGGCGCATCAGG
DNA 2: CCTGATGCGCCGGGCGGGATT
B2: Skp2 promoter region 2 (dsDNA)
DNA 1: AATCCCGCCCGGCGCCGCAGG
DNA 2: CCTGCGGCGCCGGGCGGGATT
B3: region 2 mutant 2 (dsDNA)
DNA 1: AATCCATCCCGGCACCTCAGG
DNA 2: CCTGAGGTGCCGGGATGGATT
B4: region 2 mutant 1 (dsDNA)
DNA 1: AATCCCACCCGGCACCTCAGG
DNA 2: CCTGAGGTGCCGGGTGGGATT
B5: Skp2 promoter region 4 (dsDNA)
DNA 1: AGTTCGCGGGTCC
DNA 2: GGACCCGCGAACT
B6: region 3 mutant (dsDNA)
DNA 1: AGAGCATGCAGAACTCCGCACGAGCGGTGG
DNA 2: CCACCGCTCGTGCGGAGTTCTGCATGCTCT
B7: Skp2 promoter region 1 (dsDNA)
DNA 1: GCTCCGGGAAAA
DNA 2: TTTTCCCGGAGC
B8: region 2 mutant 3 (dsDNA)
DNA 1: AATCCCGCCCGGATCCGCAGG
DNA 2: CCTGCGGATCCGGGCGGGATT
B9: Skp2 promoter region 3 (dsDNA)
DNA 1: AGAGCGGGATGCAGAACTCCGCGCGCGCGGTGG
DNA 2: CCACCGCGCGCGCGGAGTTCTGCATCCCGCTCT

Key:
Details in all cases: tags: baculovirus-expressed
E2F-1/DP1 heterodimer [1] = target: T1, E2F-1/DP1 heterodimer (UniProt Q01094;Q14186 Q01094:1-437,Q14186:1-410); assay: EMSA; stated as similar results to first mutation
E2F-1/DP1 heterodimer [2] = target: T1, E2F-1/DP1 heterodimer; assay: EMSA
E2F-1/DP1 heterodimer [3] = target: T1, E2F-1/DP1 heterodimer; assay: EMSA; mutation abolishes binding; promoter activity reduced at least 2-fold but not activation by E2F-1
E2F-1/DP1 heterodimer [4] = target: T1, E2F-1/DP1 heterodimer; assay: EMSA; mutation abolished E2F-1 binding; promoter activity reduced about 2-fold and E2F-1 activation suppressed

T1 sequence (Q01094 whole entry, chain 1 of 2): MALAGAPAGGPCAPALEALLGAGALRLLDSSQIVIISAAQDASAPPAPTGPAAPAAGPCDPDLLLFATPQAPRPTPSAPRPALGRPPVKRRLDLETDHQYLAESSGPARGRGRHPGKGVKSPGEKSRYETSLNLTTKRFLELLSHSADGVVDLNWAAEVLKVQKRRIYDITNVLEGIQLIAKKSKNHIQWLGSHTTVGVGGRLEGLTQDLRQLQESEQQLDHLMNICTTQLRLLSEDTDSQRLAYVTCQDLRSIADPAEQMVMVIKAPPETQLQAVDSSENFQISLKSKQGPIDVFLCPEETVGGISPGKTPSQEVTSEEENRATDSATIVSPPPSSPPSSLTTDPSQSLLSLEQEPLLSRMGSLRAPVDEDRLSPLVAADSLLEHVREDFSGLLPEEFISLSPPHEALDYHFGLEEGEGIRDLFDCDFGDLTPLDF
T1 sequence (Q14186 whole entry, chain 2 of 2): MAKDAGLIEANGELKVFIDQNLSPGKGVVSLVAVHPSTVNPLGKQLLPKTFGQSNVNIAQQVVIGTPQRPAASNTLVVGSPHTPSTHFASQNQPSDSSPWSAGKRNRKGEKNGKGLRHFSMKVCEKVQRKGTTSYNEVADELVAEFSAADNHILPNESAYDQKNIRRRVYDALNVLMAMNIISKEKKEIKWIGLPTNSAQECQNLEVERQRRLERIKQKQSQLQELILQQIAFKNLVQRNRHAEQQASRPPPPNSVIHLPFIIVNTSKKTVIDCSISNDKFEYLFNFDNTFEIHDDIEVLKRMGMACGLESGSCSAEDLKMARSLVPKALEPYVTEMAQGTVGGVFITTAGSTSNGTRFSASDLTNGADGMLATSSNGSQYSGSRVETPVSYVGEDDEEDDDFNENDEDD

| Binder | binding result (E2F-1/DP1 heterodimer [1]) | binding result (E2F-1/DP1 heterodimer [2]) | other results |
| --- | --- | --- | --- |
| B1 | no binding |  |  |
| B2 |  | binds |  |
| B3 | no binding |  |  |
| B4 |  |  | binding result (E2F-1/DP1 heterodimer [3]): no binding |
| B5 |  | binds |  |
| B6 |  |  | binding result (E2F-1/DP1 heterodimer [4]): no binding |
| B7 |  | no binding |  |
| B8 | no binding |  |  |
| B9 |  | binds |  |
